Data: article PMC9482650, “Quantitative fragmentomics allow affinity mapping of interactomes” (Nature Communications, 2022)

T1: DFNB31_3, Q9P202
T1 sequence (Q9P202 811-907, limits assumed, looked up): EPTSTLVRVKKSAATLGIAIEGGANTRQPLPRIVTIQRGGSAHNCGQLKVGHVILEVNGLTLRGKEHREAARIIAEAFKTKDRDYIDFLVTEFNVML

T2: PDZRN3_1, Q9UPQ7
T2 sequence (Q9UPQ7 244-349, limits assumed, looked up): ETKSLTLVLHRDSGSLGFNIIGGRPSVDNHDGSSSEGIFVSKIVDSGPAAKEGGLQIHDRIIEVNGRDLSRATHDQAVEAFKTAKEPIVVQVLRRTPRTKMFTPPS

T3: RHPN1, Q8TCX5
T3 sequence (Q8TCX5 508-602, limits assumed, looked up): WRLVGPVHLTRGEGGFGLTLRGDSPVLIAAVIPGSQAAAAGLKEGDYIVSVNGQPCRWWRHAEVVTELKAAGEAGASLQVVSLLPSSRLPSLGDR

T4: GRIP1_5, Q9Y3R0
T4 sequence (Q9Y3R0 568-668, limits assumed, looked up): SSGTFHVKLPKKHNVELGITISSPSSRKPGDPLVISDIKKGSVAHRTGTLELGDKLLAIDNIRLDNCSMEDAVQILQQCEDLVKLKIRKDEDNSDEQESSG

T5: GRIP1_3, Q9Y3R0
T5 sequence (Q9Y3R0 247-346, limits assumed, looked up): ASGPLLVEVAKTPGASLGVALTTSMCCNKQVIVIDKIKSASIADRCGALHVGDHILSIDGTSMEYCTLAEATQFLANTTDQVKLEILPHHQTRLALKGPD

T6: DVL3, Q92997
T6 sequence (Q92997 244-331, limits assumed, looked up): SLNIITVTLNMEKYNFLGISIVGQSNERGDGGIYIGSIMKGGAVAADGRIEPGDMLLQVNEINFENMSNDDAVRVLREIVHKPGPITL

T7: LIN7A, O14910
T7 sequence (O14910 103-200, limits assumed, looked up): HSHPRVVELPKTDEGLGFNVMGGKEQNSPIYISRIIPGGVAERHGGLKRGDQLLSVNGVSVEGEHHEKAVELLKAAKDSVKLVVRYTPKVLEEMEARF

T8: GRIP1_2, Q9Y3R0
T8 sequence (Q9Y3R0 145-248, limits assumed, looked up): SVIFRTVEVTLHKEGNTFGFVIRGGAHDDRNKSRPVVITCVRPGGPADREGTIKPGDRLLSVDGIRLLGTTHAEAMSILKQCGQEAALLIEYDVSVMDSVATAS

T9: RADIL, Q96JH8
T9 sequence (Q96JH8 971-1071, limits assumed, looked up): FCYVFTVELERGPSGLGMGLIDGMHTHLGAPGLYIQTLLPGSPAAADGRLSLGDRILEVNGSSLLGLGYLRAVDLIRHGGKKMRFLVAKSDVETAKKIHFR

T10: RAPGEF6, Q8TEU7
T10 sequence (Q8TEU7 525-625, limits assumed, looked up): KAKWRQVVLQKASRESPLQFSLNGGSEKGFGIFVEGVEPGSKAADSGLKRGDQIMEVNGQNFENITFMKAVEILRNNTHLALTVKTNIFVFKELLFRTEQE

B1: TMEM225B, P0DP42 (peptide)
chain: ETQVTAETVI
B2: DACT1, Q9NYF0 (peptide)
chain: SGSLKLMTTV
B3: NOSTRIN, Q8IVI9 (peptide)
chain: SNAGNTATKA
B4: SAPCD1, Q5SSQ6 (peptide)
chain: TKGPRGPTRV

What was measured:
Test in all cases: holdup assay
Set-up in all cases: key: below the threshold = too weak to quantify, mostly under pKd 3.1 to 4
Details in all cases: plain residues with an end cap or a label only (N-terminal biotin on a linker: ado-ado)
DFNB31_3, Q9P202 = target: T1, DFNB31_3, Q9P202
TJP2_1, Q9UDY2 = target: TJP2_1, Q9UDY2
TJP2_1, Q9UDY2, sequence (Q9UDY2 24-128): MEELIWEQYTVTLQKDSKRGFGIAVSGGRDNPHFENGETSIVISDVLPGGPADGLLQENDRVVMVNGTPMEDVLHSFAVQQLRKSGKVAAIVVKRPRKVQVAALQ

PDZRN3_1, Q9UPQ7 = target: T2, PDZRN3_1, Q9UPQ7
LNX1_3, Q8TBB1 = target: LNX1_3, Q8TBB1
LNX1_3, Q8TBB1, sequence (Q8TBB1 500-596): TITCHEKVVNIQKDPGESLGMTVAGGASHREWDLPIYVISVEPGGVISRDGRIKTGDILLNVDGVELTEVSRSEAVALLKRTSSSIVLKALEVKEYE

LNX1_1, Q8TBB1 = target: LNX1_1, Q8TBB1
LNX1_1, Q8TBB1, sequence (Q8TBB1 261-371): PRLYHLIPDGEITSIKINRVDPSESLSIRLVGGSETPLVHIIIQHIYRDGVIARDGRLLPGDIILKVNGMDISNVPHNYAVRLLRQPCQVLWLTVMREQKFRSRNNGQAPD

RHPN1, Q8TCX5 = target: T3, RHPN1, Q8TCX5
GRIP1_5, Q9Y3R0 = target: T4, GRIP1_5, Q9Y3R0
GRIP1_3, Q9Y3R0 = target: T5, GRIP1_3, Q9Y3R0
DVL3, Q92997 = target: T6, DVL3, Q92997
Inadl_10, Q8NI35 = target: Inadl_10, Q8NI35
Inadl_10, Q8NI35, sequence (Q8NI35 1673-1763): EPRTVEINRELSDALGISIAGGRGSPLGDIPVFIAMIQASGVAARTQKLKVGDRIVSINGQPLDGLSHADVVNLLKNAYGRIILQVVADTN

LIN7A, O14910 = target: T7, LIN7A, O14910
HTRA1, Q92743 = target: HTRA1, Q92743
HTRA1, Q92743, sequence (Q92743 360-477): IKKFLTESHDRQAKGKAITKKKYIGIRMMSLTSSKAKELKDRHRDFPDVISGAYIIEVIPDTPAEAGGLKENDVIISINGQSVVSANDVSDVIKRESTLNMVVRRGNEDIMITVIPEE

GRIP1_2, Q9Y3R0 = target: T8, GRIP1_2, Q9Y3R0
NHERF4_2, Q86UT5 = target: NHERF4_2, Q86UT5
NHERF4_2, Q86UT5, sequence (Q86UT5 220-308): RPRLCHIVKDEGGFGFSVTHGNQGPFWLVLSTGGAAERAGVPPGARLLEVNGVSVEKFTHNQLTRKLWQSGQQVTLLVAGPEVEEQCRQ

PDZRN4_1, Q6ZMN7 = target: PDZRN4_1, Q6ZMN7
PDZRN4_1, Q6ZMN7, sequence (Q6ZMN7 213-318): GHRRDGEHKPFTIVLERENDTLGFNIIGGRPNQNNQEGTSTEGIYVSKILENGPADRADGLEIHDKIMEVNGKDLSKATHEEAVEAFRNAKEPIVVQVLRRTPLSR

DLG4_2, P78352 = target: DLG4_2, P78352
DLG4_2, P78352, sequence (P78352 155-259): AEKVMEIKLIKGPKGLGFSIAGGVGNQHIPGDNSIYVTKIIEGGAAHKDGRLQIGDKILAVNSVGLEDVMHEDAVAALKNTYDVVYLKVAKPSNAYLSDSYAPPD

RADIL, Q96JH8 = target: T9, RADIL, Q96JH8
PDLIM1, O00151 = target: PDLIM1, O00151
PDLIM1, O00151, sequence (O00151 1-87): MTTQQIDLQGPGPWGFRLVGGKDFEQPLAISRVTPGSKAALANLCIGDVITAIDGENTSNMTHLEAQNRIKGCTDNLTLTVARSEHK

RAPGEF6, Q8TEU7 = target: T10, RAPGEF6, Q8TEU7
DLG4_3, P78352 = target: DLG4_3, P78352
DLG4_3, P78352, sequence (P78352 306-403): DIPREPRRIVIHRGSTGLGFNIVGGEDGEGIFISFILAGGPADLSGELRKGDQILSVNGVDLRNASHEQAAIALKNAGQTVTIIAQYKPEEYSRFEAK

MAGI1_1, Q96QZ7 = target: MAGI1_1, Q96QZ7
MAGI1_1, Q96QZ7, sequence (Q96QZ7 1-106): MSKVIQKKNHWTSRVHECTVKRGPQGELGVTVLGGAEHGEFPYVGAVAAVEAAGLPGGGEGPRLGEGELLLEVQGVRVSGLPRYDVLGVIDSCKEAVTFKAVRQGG

SCRIB_1, Q14160 = target: SCRIB_1, Q14160
SCRIB_1, Q14160, sequence (Q14160 718-814): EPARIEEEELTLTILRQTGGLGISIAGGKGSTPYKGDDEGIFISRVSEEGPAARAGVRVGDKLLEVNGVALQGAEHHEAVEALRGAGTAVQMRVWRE

MAST2, Q6P0Q8 = target: MAST2, Q6P0Q8
MAST2, Q6P0Q8, sequence (Q6P0Q8 1099-1202): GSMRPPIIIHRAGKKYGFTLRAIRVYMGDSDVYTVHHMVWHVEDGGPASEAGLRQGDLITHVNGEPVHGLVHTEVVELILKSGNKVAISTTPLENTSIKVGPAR

GIPC2, Q8TF65 = target: GIPC2, Q8TF65
GIPC2, Q8TF65, sequence (Q8TF65 112-203): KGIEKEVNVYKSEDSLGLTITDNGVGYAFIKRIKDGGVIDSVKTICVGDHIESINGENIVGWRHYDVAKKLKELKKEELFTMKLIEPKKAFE

NHERF4_4, Q86UT5 = target: NHERF4_4, Q86UT5
NHERF4_4, Q86UT5, sequence (Q86UT5 464-550): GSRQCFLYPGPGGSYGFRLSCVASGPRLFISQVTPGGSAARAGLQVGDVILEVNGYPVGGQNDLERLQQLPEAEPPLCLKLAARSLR

GORASP2, Q9H8Y8 = target: GORASP2, Q9H8Y8
GORASP1, Q9BQQ3 = target: GORASP1, Q9BQQ3
GORASP1, Q9BQQ3, sequence (Q9BQQ3 1-208): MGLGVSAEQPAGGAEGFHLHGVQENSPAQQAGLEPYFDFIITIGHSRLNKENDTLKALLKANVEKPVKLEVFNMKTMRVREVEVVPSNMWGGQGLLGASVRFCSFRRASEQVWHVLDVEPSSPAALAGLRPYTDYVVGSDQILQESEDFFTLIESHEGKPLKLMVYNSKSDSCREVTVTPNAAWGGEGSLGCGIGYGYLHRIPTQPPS

Row | Binder | pKd (DFNB31_3, Q9P202) | pKd (TJP2_1, Q9UDY2) | pKd (PDZRN3_1, Q9UPQ7) | pKd (LNX1_3, Q8TBB1) | pKd (LNX1_1, Q8TBB1) | pKd (RHPN1, Q8TCX5) | pKd (GRIP1_5, Q9Y3R0) | pKd (GRIP1_3, Q9Y3R0) | pKd (DVL3, Q92997) | pKd (Inadl_10, Q8NI35) | pKd (LIN7A, O14910) | pKd (HTRA1, Q92743) | pKd (GRIP1_2, Q9Y3R0) | pKd (NHERF4_2, Q86UT5) | pKd (PDZRN4_1, Q6ZMN7) | pKd (DLG4_2, P78352) | pKd (RADIL, Q96JH8) | pKd (PDLIM1, O00151) | pKd (RAPGEF6, Q8TEU7) | pKd (DLG4_3, P78352) | other results
1 | B1 | 4.03 | below the threshold | below the threshold | below the threshold | 3.59 | 4.44 | below the threshold | below the threshold | below the threshold | below the threshold | below the threshold | 4.31 | below the threshold | below the threshold | below the threshold | 4.05 | below the threshold | below the threshold | below the threshold | below the threshold | pKd (MAGI1_1, Q96QZ7): below the threshold; pKd (SCRIB_1, Q14160): 4.24; pKd (MAST2, Q6P0Q8): 5.12; pKd (GIPC2, Q8TF65): below the threshold; pKd (NHERF4_4, Q86UT5): below the threshold; pKd (GORASP2, Q9H8Y8): 3.57; pKd (GORASP1, Q9BQQ3): 3.67
2 | B2 | 4.03 | 3.58 | below the threshold | below the threshold | 4.04 | 4.58 | below the threshold | below the threshold | below the threshold | 3.84 | 3.68 | 4.04 | below the threshold | below the threshold | below the threshold | 5.22 | 4.15 | below the threshold | below the threshold | 4.26 | pKd (MAGI1_1, Q96QZ7): below the threshold; pKd (SCRIB_1, Q14160): 3.98; pKd (MAST2, Q6P0Q8): 5.36; pKd (GIPC2, Q8TF65): below the threshold; pKd (NHERF4_4, Q86UT5): below the threshold; pKd (GORASP2, Q9H8Y8): 4.32; pKd (GORASP1, Q9BQQ3): 3.56
3 | B3 | below the threshold | below the threshold | below the threshold | below the threshold | below the threshold | below the threshold | below the threshold | below the threshold | below the threshold | below the threshold | below the threshold | below the threshold | below the threshold | below the threshold | below the threshold | below the threshold | 3.57 | below the threshold | below the threshold | 3.5 | pKd (MAGI1_1, Q96QZ7): below the threshold; pKd (SCRIB_1, Q14160): below the threshold; pKd (MAST2, Q6P0Q8): 3.59; pKd (GIPC2, Q8TF65): below the threshold; pKd (NHERF4_4, Q86UT5): below the threshold; pKd (GORASP2, Q9H8Y8): below the threshold; pKd (GORASP1, Q9BQQ3): below the threshold
4 | B4 | below the threshold | 3.9 | 4.03 | below the threshold | below the threshold | below the threshold | below the threshold | below the threshold | below the threshold | below the threshold | below the threshold | below the threshold | below the threshold | below the threshold | 3.67 | 4.53 | 3.54 | below the threshold | below the threshold | 4.59 | pKd (MAGI1_1, Q96QZ7): below the threshold; pKd (SCRIB_1, Q14160): 3.7; pKd (MAST2, Q6P0Q8): 4.67; pKd (GIPC2, Q8TF65): below the threshold; pKd (NHERF4_4, Q86UT5): below the threshold; pKd (GORASP2, Q9H8Y8): 3.96; pKd (GORASP1, Q9BQQ3): 3.57
